± gives the uncertainty stated by the source.

Here are results for 143 substances from the supplement of paper PMC12042874.

A short description of this data set: amyloid nucleation score (Sup35N fusion, yeast selection) (log enrichment); library NNK2; higher = more nucleation; inactive = no reads after selection. An outline of the steps:
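Psi-negative yeast expressed Sup35N fused to peptides of 20 random codons. They were induced 24 hours with 100 μM copper sulfate, grown 7 days at 30°C without adenine and uracil, and their plasmid inserts from input and output were Illumina-sequenced. The nucleation score is the DiMSum log enrichment of output over input reads, centred on the mode score of non-aggregating sequences. Sequences with under 100 input reads were excluded.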

The substance FDCGGCKNMGF returned an amyloid nucleation score of -1.74 ± 0.62.
As to SLRIYGYMDRKSPKESSNFR, the amyloid nucleation score was 0.975 ± 0.37.
Take LFEMP: the amyloid nucleation score was 0.728 ± 0.74.
As for YCNFDRIVYWPLGAAALPFR, the amyloid nucleation score was found to be 0.065 ± 1.1.
The result for LIARSLGFKNVWS reads -0.575 ± 0.54.
For SLGEKRFACLATSCCADDCT, the amyloid nucleation score was 0.508 ± 0.2.
Substance YVSSVAIAFGLSVGLAYYPP returned an amyloid nucleation score of 5.26 ± 0.059.
As for CLVAQNVTVMVSGV, the figure is 5.94 ± 0.065.
As to CSIGLRCGNVMLPTEWVSNC, the amyloid nucleation score was -0.763 ± 0.32.
As for KVTSMHVFIESWGV, the figure is 0.082 ± 0.79; as for YPCVMFFPEPGEYCLVYRC, -0.608 ± 1.1; as for FMSGGVVYSLMTGTR, 0.388 ± 0.36.
As for FPTIDRQVFDVRR, the figure is -1.17 ± 0.41.
The result for VISCQKPGDIKTYNRVGTTD reads -0.35 ± 0.23.
Substance NFVILLCKQN came in with an amyloid nucleation score of 5.2 ± 0.053.
As for LCVSAVLKLVGNLWDDEREC, the figure is -0.091 ± 0.79; as for LYRQTLLSHL, -0.231 ± 0.24.
The result for LNRTRYIAISKVLNRFSVSR reads -0.237 ± 0.64; that for TNRIGFFLFCTAV, -0.049 ± 0.76; that for DGNAVCDILLLTSIMVSVSA, -0.551 ± 0.54.
The result for HFMRLYSKVLILLAEKRTAP reads 0.083 ± 0.76.
The substance NAYLVSRVIKLIVLSKWYRY displayed an amyloid nucleation score of 0.689 ± 0.57.
As for FRVIWVVLVACQVSFHVRFV, the figure is -0.283 ± 1.
The result for NRSLGNHAEYNHASRLKGDS reads -0.658 ± 0.31.
The result for VMRLFIGAGIGRAEL reads 5.63 ± 0.059; that for FYVNSWPSPLGTYWRGYNGR, 0.106 ± 1.
With VAESVSVT, the amyloid nucleation score came to 0.6 ± 0.24.
The result for LIVKLANTGRSQHHIRSWLS reads -0.212 ± 0.38.
AWRVRTLQGFYGSDAWQSHD gave an amyloid nucleation score of -0.237 ± 0.79.
For HGLVGESVRSYQTQRQVTMA, the amyloid nucleation score came to 0.544 ± 0.4.
The result for TFAPDLS reads -0.053 ± 0.56; that for ASQRTVA, 1.6 ± 0.36.
The result for PFQVFILHYA reads 6.356 ± 0.042; that for SLWRNHMMQ, 0.746 ± 0.4; that for GVDDARTTKAGNWYSVRKGQ, 1.64 ± 0.41.
The substance ALRTPCYSAMHLGAWVFVCF yielded an amyloid nucleation score of 3.31 ± 0.14.
The result for GMAFAKA reads 0.077 ± 0.63; that for ADIAWSCRLESNCFPTLSMM, 0.255 ± 0.33; that for CSFVLVFVIIQ, 3.49 ± 0.12.
As for SRSVFIRSLAVITVIWILT, the figure is 1.34 ± 0.13; as for SGILLLRSLFGWPISERGHN, 0.167 ± 0.56.
HCYQTDRSHIICHELLHCFV showed an amyloid nucleation score of -0.74 ± 0.49.
TPFGTVECTQLLLSTSRWLF had an amyloid nucleation score of -0.26 ± 1.
WLRNWGYAFGPRQNYNCCRV: the amyloid nucleation score is -0.569 ± 0.49.
As to NLQLVGVMNPDPCESWN, the amyloid nucleation score worked out at 0.222 ± 0.31.
As for QKWVF, the figure is -0.76 ± 0.31.
The result for FVGTAQEEIHGFMNCIVELR reads “inactive”; that for YFYLFYCEIRVPTELYLNMP, 3.15 ± 0.06.
In the case of FDHMWLSGQVQWFLNYTTSL, the amyloid nucleation score entry is “inactive”.
Substance FFKISQSTTTEQLVYSCYSS came in with an amyloid nucleation score of 3.02 ± 0.095.
With GVCLSGACAGISGGADYSGR, the amyloid nucleation score turned out to be 0.332 ± 0.22.
The result for YIGLSRATWM reads -1.75 ± 0.62; that for TLYMFMPMLFNVIPEVRWPP, 9.03 ± 0.071.
The result for SSNVK reads 0.685 ± 0.4; that for EYGVAT, 1.17 ± 0.18.
The result for KDCISLDSIV reads “inactive”; that for LVMRMFRERYNLCVSYWLN, “inactive”.
SFGFVAMMIVRCANFRASPV displayed an amyloid nucleation score of 0.688 ± 0.81.
The substance QGGLDRMYGSDVVYFKDTYP displayed an amyloid nucleation score of 0.379 ± 0.54.
As for TSPGTGIVGDIYLHYIFVKW, the amyloid nucleation score was 0.327 ± 0.46.
The result for GTVGVGMS reads 1.11 ± 0.66.
As for LVSTEIN, the figure is 3.75 ± 0.052; as for LYRNSMRRDR, -0.669 ± 0.35.
As to TRLDVQLGHGIGSV, the amyloid nucleation score turned out to be 0.092 ± 1.1.
The result for AYASPCMQDLGRCLGRPRML reads 1.21 ± 0.31; that for PGYNSFLWWAAME, -0.271 ± 0.34.
As for PSVKIRFQVAYWLYRSLMMS, the figure is 0.877 ± 0.55; as for KDFLANPKGESGQQRTMQCI, -0.502 ± 0.79; as for RFYDFLFLFIPSRIELIMFR, -0.729 ± 1.1.
As to GGSVMQILGWFLQAV, the amyloid nucleation score was 0.683 ± 0.42.
On to NVQALMN, for which the amyloid nucleation score was determined as 0.012 ± 0.74.
As for LNTYMAYSGWIVTN, the figure is -0.148 ± 0.33; as for DMTVLYCMFCSLSWQINCFR, 0.838 ± 0.25.
WDDFTYGYRLRIYFLIFQRG displayed an amyloid nucleation score of -1.15 ± 1.1.
For NNHGLRTYIGPYISWLIYFS, the amyloid nucleation score is 2.53 ± 0.17.
Substance FELIFELLLKKCALI yielded an amyloid nucleation score of 0.032 ± 0.54.
The result for DGPLSLNSIHFTWLRAMDKV reads -0.297 ± 1.1; that for RNSAHNLEMFYRGMWDGMCW, -0.429 ± 0.55; that for GNVYHLPDCLNLTWVLKIKN, -0.944 ± 0.39.
Regarding AISDGPET, the amyloid nucleation score was 0.746 ± 0.43.
As for PNVCKLYMWQFGTLNQAPQR, the figure is 8.399 ± 0.065; as for NDTCIRLWRWLRAQDSWLGN, 0.668 ± 0.37.
As for TMKWLCN, the figure is 4.69 ± 0.054.
Take TRCFQILPCYRI: the amyloid nucleation score was -0.624 ± 0.76.
As for YEHRNGLWSMKKRLIG, the figure is 0.253 ± 0.31; as for YLMSFGPWGNYYFRSCKLWL, 6.42 ± 0.082; as for FFVLRHA, -0.513 ± 0.32.
For the substance NIQWLLQVDEDFKF, the amyloid nucleation score came to 1.58 ± 0.16.
As for RVRNMS, the figure is 0.1 ± 0.32.
The substance YNSCSYEIILGDFLWLLTGQ had an amyloid nucleation score of 0.624 ± 0.2.
As for VSGCRGVMLI, the figure is -0.816 ± 0.54; as for INTCIWASLYLSMAHEYRI, -0.793 ± 0.62.
The result for RCYPS reads 0.277 ± 0.17; that for YVLPLPGNLNIMEAAGRYYA, 4.04 ± 0.057; that for GHMVYRTNVGRSV, 0.187 ± 0.74.
As for IVCPFKT, the figure is -1.35 ± 0.78.
RLSLGKGAVTDT: the amyloid nucleation score came out at 0.837 ± 0.19.
The result for CVFLHSALSQYRVIIVTWYP reads -0.237 ± 0.63; that for SCRRMLFGMWILGFLNR, “inactive”; that for ISYSVKPLYFVSRVRTVNLG, 4.13 ± 0.078.
As for KYVGSWITTDVSFECTVI, the figure is -0.46 ± 1.
Consider KMDFAFEA, for which the amyloid nucleation score was -0.202 ± 0.8.
The result for CVFRHTVIYGLGAGW reads 2.65 ± 0.14.
The result for QLYYMKF reads 5.685 ± 0.042; that for NSHFALDGKSW, -0.711 ± 0.39.
For CTLVFKGLGCKSVELGGTFC, the amyloid nucleation score is -0.564 ± 0.61.
The result for RGLRA reads -0.213 ± 0.41; that for MFCSEMLVYGLMMVLSF, -0.05 ± 0.3.
As for SSVIHYRT, the figure is 0.038 ± 0.8.
Regarding KDAPKFIYFSQLTTKCITRY, the amyloid nucleation score was 4.14 ± 0.044.
LVSRCDDACGIQTGNMV yielded an amyloid nucleation score of 0.043 ± 0.33.
The result for ASTLPYYECEYR reads 0.343 ± 0.18; that for LFSHL, -1.4 ± 0.54.
LHQTV returned an amyloid nucleation score of 0.79 ± 0.57.
LDTVPTWFYQVMWGYDWVLK showed an amyloid nucleation score of 2.81 ± 0.11.
As for ACNVILCVTNPTHNVIV, the figure is 9.254 ± 0.036; as for TLGSLLLLMSWVEGLQKHLI, 0.888 ± 0.48; as for SCFGRKLLLLDGA, 0.203 ± 0.28.
The result for GFTRKASGADTRGRRTAVSS reads 1.61 ± 0.37; that for FGFGRRKSKKWLVDLDPRR, “inactive”.
On to TRDIELWLGWNRKEVCVLLE, for which the amyloid nucleation score entry was “inactive”.
Take YAESSNDARSSFISKVSAFI: the amyloid nucleation score result is “inactive”.
As for RMFWLIVQLGGSFDRLYGFR, the figure is 1.21 ± 0.45; as for LVEVIGFVRVSEPISTHA, 0.884 ± 0.33; as for YSVFNTSNFSALDPRFRRLF, 0.201 ± 0.8.
As for RGALVICCNTLSCGRGRLGD, the figure is 10.22 ± 0.074; as for FFMNNALFRGWG, 2.97 ± 0.15; as for HLHGCIAMCASSSLIAGCTE, -0.603 ± 0.78.
The substance LPCFYEVCQTSHYRFYFIGK displayed an amyloid nucleation score of 1.96 ± 0.071.
As for IIFVFREYAINMKGVFK, the figure is 0.082 ± 1.
Regarding SPGIITCGYKLLDG, the amyloid nucleation score is 1.69 ± 0.27.
EWIWM showed an amyloid nucleation score of -0.129 ± 0.43.
The result for MTGNIEIIRMCRCTTYGMTY reads 1.09 ± 0.37.
WCLGSMVTHYYLATNSSGYC showed an amyloid nucleation score of 3.64 ± 0.11.
Consider SIGNIVVLVEERSVRQPTLF, for which the amyloid nucleation score was 2.79 ± 0.14.
In turn, WRAIVPSGK came in with an amyloid nucleation score of 0.067 ± 0.63.
The substance VKIYVFSFFMEL gave an amyloid nucleation score of 3.7 ± 0.12.
QLSFPSVTDLNRLAIIMLRV registered an amyloid nucleation score of 1.13 ± 0.4.
As for GGLFRFYS, the amyloid nucleation score entry is “inactive”.
The result for SKRFIVIATLNTYMFQKLEF reads “inactive”; that for CMFPSVCQPLTGMTVYGNST, -0.084 ± 0.48.
The result for FLSEFVRIGPYARS reads “inactive”.
As for IIEIEGVCAFDWLRIFLILI, the figure is -1.27 ± 0.47.
